Test results taken from patent publication US20050095242A1 (published 2005).
No end group written: not given here.

T1: human CCR4 on CCR4/EL-4 cells (CCR4-high-expressing cells) (human, UniProt P51679 1-360)
T1 construct: also called human CCR4-high-expressing cell
T1 sequence: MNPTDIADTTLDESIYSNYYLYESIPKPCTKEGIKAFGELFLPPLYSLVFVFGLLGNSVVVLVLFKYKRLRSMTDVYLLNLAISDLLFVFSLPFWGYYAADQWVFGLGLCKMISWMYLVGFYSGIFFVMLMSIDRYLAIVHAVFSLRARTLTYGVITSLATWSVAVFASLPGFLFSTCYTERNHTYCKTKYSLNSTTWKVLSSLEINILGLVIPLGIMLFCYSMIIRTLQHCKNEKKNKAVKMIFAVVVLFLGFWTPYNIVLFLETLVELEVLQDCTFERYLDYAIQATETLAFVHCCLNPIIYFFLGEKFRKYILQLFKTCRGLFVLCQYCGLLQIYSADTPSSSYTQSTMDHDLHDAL

T2: BSA-Compound 1 conjugate (human CCR4 extracellular region peptide Compound 1 conjugated to bovine serum … (human, also: conjugated to BSA via SMCC))
T2 construct: Coated antigen of the ELISA; also called CCR4 partial peptide
T2 peptide: DESIYSNYYLYESIPKPC

T3: biotinylated Compound 1 (biotinylated CCR4 partial peptide) (human, also: biotinylated, site not given here)
T3 peptide: DESIYSNYYLYESIPKPC


Columns and labels:
[1] = target: T1, human CCR4 on CCR4/EL-4 cells …; test: flow cytometry (immunofluorescent method) on CCR4/EL-4 cells, 10 ug/ml antibody, reference antibody
Protocol: Into a 96 well plate, 2×10⁵ or more of CCR4/EL-4 cells, CCR4-high-expressing cells obtained in Reference Example 1, were dispensed. An antibody solution was prepared by diluting each of the purified antibodies and a human immunoglobulin (manufactured by Welfide) for preventing nonspecific staining to give concentrations of 10 μg/ml and 3.75 mg/ml, respectively, with a buffer for FACS (1% BSA-PBS, 0.02% EDTA, 0.05% NaN₃), and the antibody solution was added at 100 μl/well and allowed to react for 30 minutes in ice. As a negative control, an anti-human IL-5 receptor α chain antibody (WO97/10354) was reacted with the same concentration. After washing twice with 200 μl/well of the buffer for FACS, a PE-labeled anti-human IgG antibody (manufactured by Coulter) diluted 100 times was added at 50 μl/well. After the reaction in ice under shading and subsequent washing three times with 200 μl/well of the buffer for FACS, the reaction product was suspended in 500 µl of the buffer for FACS and the fluorescence intensity was measured by using a flow cytometer.

[2] = target: T2, BSA-Compound 1 conjugate (human CCR4 …); test: ELISA on BSA-Compound 1 conjugate, reference antibody
[3] = target: T3, biotinylated Compound 1 (biotinylated …); test: BIAcore 2000, 4 ug/ml antibody over biotinylated Compound 1 on SA sensor tip
Protocol: In order to measure the binding activity in more detail, the binding activity of various purified antibodies was measured by using BIAcore 2000 (manufactured by BIACORE) as follows. In this case, HBS-EP (manufactured by BIACORE) was used as the buffer for diluting samples and for the measurement. First, 5 μl of 0.01 μg/ml solution of Compound 1 as a biotinylated CCR4 partial peptide was added to a sensor tip SA (manufactured by BIACORE) at a flow rate of 5 μl/minute and immobilized on the sensor tip.
To the prepared biotinylated compound 1-immobilized sensor tip, 20 μl of 4 μg/ml solution of each of the purified antibodies was added at a flow rate of 5 μl/minute, and after completion of the addition, the dissociation reaction was monitored for 4 minutes and then the sensor tip surface was regenerated by adding 5 μl of 10 mM HCl twice. In this way, a binding reaction curve (sensorgram) for Compound 1 was obtained.

[4] = target: T2, BSA-Compound 1 conjugate (human CCR4 …); test: ELISA, COS-7 culture supernatant on BSA-Compound 1 conjugate
Protocol: Into a 96 well ELISA plate (manufactured by Greiner), 0.05 μg/ml of the prepared conjugate was dispensed in at 50 μl/well and allowed to stand at 4° C. overnight for adsorption. After washing with PBS, PBS containing 1% BSA (hereinafter referred to as “1% BSA-PBS”) was added thereto at 100 μl/well and allowed to react at room temperature for 1 hour to block the remaining active groups. After washing each well with PBS containing 0.05% Tween 20 (hereinafter referred to as “Tween-PBS”), a culture supernatant of the transformant was added at 50 μl/well and allowed to react at room temperature for 1 hour. After the reaction and subsequent washing of each well with Tween-PBS, a peroxidase-labeled goat anti-human IgG(γ) antibody solution (manufactured by American Qualex) diluted 6,000 folds with 1% BSA-PBS was added as a secondary antibody solution at 50 μl/well and allowed to react at room temperature for 1 hour. After the reaction and subsequent washing with Tween-PBS, an ABTS substrate solution (a solution prepared by dissolving 0.55 g of 2,2′-azino-bis(3-ethylbenzothiazoline-6-sulfonic acid) ammonium in 1 liter of 0.1 M citrate buffer (pH 4.2) and adding 1 μl/ml hydrogen peroxide just before use) was added at 50 μl well to develop color, and the reaction was stopped 20 minutes thereafter by adding 5% SDS solution at 50 μl/well. Thereafter, absorbance at 415 nm was measured.

binding result [1] | binding result [2] | binding result [3] | binding result [4] | Binder
binds | binds |  |  | anti-CCR4 human chimeric antibody KM2760 (antibody, V domains shown, Produced by transformant KM2760 (FERM BP-7054); also called anti-CCR4 chimeric antibody KM2760) VH: EVQLVESGGDLMKPGGSLKISCAASGFIFSNYGMSWVRQTPDMRLEWVATISSASTYSYYPDSVKGRFTISRDNAENSLYLQMNSLRSEDTGIYYCGRHSDGNFAFGYWGRGTLVTVSA VL: DVLMTQTPLSLPVSLGDQASISCRSSRNIVHINGDTYLEWYLQRPGQSPKLLIYKVSNRFSGVPDRFSGSGSGTDFTLKISRVEAEDLGVYYCFQGSLLPWTFGGGTRLEIRR
 |  | binds | binds | anti-CCR4 CDR-grafted antibody Gal0LV0 (antibody, V domains shown, Expressed from pKANTEX93 with human CH and CL; CDR alone grafted) VH: EVQLVESGGDLVQPGRSLRLSCAASGFIFSNYGMSWVRQAPGKGLEWVATISSASTYSYYPDSVKGRFTISRDNAKNSLYLQMNSLRVEDTALYYCARHSDGNFAFGYWGQGTLVTVSS VL: DIVMTQSPLSLPVTPGEPASISCRSSRNIVHINGDTYLEWYLQKPGQSPQLLIYKVSNRFSGVPDRFSGSGSGTDFTLKISRVEAEDVGVYYCFQGSLLPWTFGQGTKVEIK
 |  |  | binds | anti-CCR4 CDR-grafted antibody HV0LV0 (antibody, V domains shown, Expressed from pKANTEX93 with human CH and CL) VH: EVQLVESGGGLVQPGGSLRLSCAASGFTFSNYGMSWVRQAPGKGLEWVSTISSASTYSYYPDSVKGRFTISRDNSKNTLYLQMNSLRAEDTAVYYCARHSDGNFAFGYWGQGTLVTVSS VL: DIVMTQSPLSLPVTPGEPASISCRSSRNIVHINGDTYLEWYLQKPGQSPQLLIYKVSNRFSGVPDRFSGSGSGTDFTLKISRVEAEDVGVYYCFQGSLLPWTFGQGTKVEIK
